From article PMC10449523, “A polysaccharide utilization locus from Chitinophaga pinensis simultaneously targets chitin and β-glucans found in fungal cell walls” (mSphere, 2023)

Tests used:
Experiment in all cases: fluorescent release of 4-methylumbelliferone (chitinase assay kit CS1030)
Assay type in all cases: biochemical, Chitinophaga pinensis
Details in all cases: kit manufacturer's conditions
[1] = substrate: CC(=O)N[C@H]1[C@H](Oc2ccc3c(C)cc(=O)oc3c2)O[C@H](CO)[C@@H](O[C@@H]2O[C@H](CO)[C@@H](O[C@@H]3O[C@H](CO)[C@@H](O)[C@H](O)[C@H]3NC(C)=O)[C@H](O)[C@H]2NC(C)=O)[C@@H]1O
Description: fluorescent release of 4-methylumbelliferone (chitinase assay kit CS1030) on CpChiB

[2] = substrate: CC(=O)N[C@H]1[C@H](Oc2ccc3c(C)cc(=O)oc3c2)O[C@H](CO)[C@@H](O[C@@H]2O[C@H](CO)[C@@H](O[C@@H]3O[C@H](CO)[C@@H](O)[C@H](O)[C@H]3NC(C)=O)[C@H](O)[C@H]2NC(C)=O)[C@@H]1O; remark: listed apart in the source
Description: fluorescent release of 4-methylumbelliferone (chitinase assay kit CS1030) on CpChiAC-CBM5

[3] = substrate: CC(=O)N[C@H]1[C@H](Oc2ccc3c(C)cc(=O)oc3c2)O[C@H](CO)[C@@H](O[C@@H]2O[C@H](CO)[C@@H](O[C@@H]3O[C@H](CO)[C@@H](O)[C@H](O)[C@H]3NC(C)=O)[C@H](O)[C@H]2NC(C)=O)[C@@H]1O; remark: listed apart in the source
Description: fluorescent release of 4-methylumbelliferone (chitinase assay kit CS1030) on CpChiB-CBM6

[4] = substrate: CC(=O)N[C@H]1[C@H](Oc2ccc3c(C)cc(=O)oc3c2)O[C@H](CO)[C@@H](O[C@@H]2O[C@H](CO)[C@@H](O[C@@H]3O[C@H](CO)[C@@H](O)[C@H](O)[C@H]3NC(C)=O)[C@H](O)[C@H]2NC(C)=O)[C@@H]1O; remark: listed apart in the source
Description: fluorescent release of 4-methylumbelliferone (chitinase assay kit CS1030) on […]

B1: CpChiB (Chitinophaga pinensis DSM 2588) (protein)
chain: QFKVVGYMPSWSGSVSAIQYSKLTHINYAFALPTSTGGLQPIENPSKLSSLVSSGHANGVKVLIAIGGWNNGDDGAFESLAANATYRTNFVNNVMNFVNQYGLDGVDMDWEYPDAGASANNYLALMQQLSTALHNNGKLLTAAVVGTGGASILNGVFNVVDFLNLMAYDYNNYEHSTYTYASQSLSYWVGRGLPASKAILGVPFYARPSWNSYATLLANGANPNSDYFGSDYYNGLPTIRSKTNLAFDQGGGIMMWELSQDATGANSLLSAIYQVKLDR
notes: C-terminal His6 tag (pET21a), E. coli BL21(DE3)
- Km [1]: 240 ± 10 µM
- kcat [1]: 2.199 ± 0.148 s⁻¹
- kcat/Km [1]: 8850 M⁻¹ s⁻¹

B2: CpChiAC-CBM5 (Chitinophaga pinensis DSM 2588) (protein)
chain: KVVVGYWQNWNLASAPYIRLRDVDSRYNVIEVAFGTTSSDLSTVNFTPEGTTVADFKADIATLQAQGRKVLLSLGGETGTLVINTEANKQAFISSMKNLLDSYNFDGFDLDIEGGTSLQLNNGDNNFMAPTTPKVVNLIAAAKEIISYRKAQGKNCLLTMAPETYYVQTAYGATYSPLVGAYLPIIYGLRNELSWIQPQLYNTGSVMGLDNKVYNSTTADFIVSMTEMLLQGFPVSGTSQTFPALREDQVAFGLPAAPGAAGSGYTAPAEVKKALNYLTKGQSYGGTYVIRKAAGYPGLRGIMTWSVNWDKVNNSEFAANYYPYFFGTTPGNQSPVVSITSPASGASFTAPASITITASASDADGSIAKVEFYNGATKLGQATAAPYSYTWTNVAAATYSLTAVATDNAGAVTTSAAVSVTVNGTGGNTCDGIAAWSATIAYNGSQQVVYNGKIYTAKWWTQGDQPDTHSGADQVWAYVRDCGGSNPGNQAPTVSITSPSAGASFSAPATVTIQATAADADGTIAKVEFYNGNTKLGEVTASPYSYTWGNVAAGAYSITAVATDNGSKSTTSAAVAIQVGSGNTGNCAGVAAYEPFPKVYNQGDKVVYNGVLYESQSNGLYNVTPGTADWWWKPLGACGAAARVAVVSPEPDGVNADSKLVVFPNPLTGTVLKVQINAAQGEKVLIELWSTNGNAILRKQIVAGAKGQQTVDLDVSQVPAGSWILKTSNQQSGRKSAAKVIRL
notes: as for B1
- Km [2]: 290 ± 0.2 µM
- kcat [2]: 3.0285 ± 0.0383 s⁻¹
- kcat/Km [2]: 10600 M⁻¹ s⁻¹

B3: CpChiB-CBM6 (Chitinophaga pinensis DSM 2588) (protein)
chain: QFKVVGYMPSWSGSVSAIQYSKLTHINYAFALPTSTGGLQPIENPSKLSSLVSSGHANGVKVLIAIGGWNNGDDGAFESLAANATYRTNFVNNVMNFVNQYGLDGVDMDWEYPDAGASANNYLALMQQLSTALHNNGKLLTAAVVGTGGASILNGVFNVVDFLNLMAYDYNNYEHSTYTYASQSLSYWVGRGLPASKAILGVPFYARPSWNSYATLLANGANPNSDYFGSDYYNGLPTIRSKTNLAFDQGGGIMMWELSQDATGANSLLSAIYQVKLDRTGTNPPTGSTLIQAENYTSMSGVQVEATTDAGGGSNVGYIETGDWLAYANINFPTSGAYKVEYRVASQSTGGQLSLDLNSGAIVLGYLNVPVTGGWQTWTTISHNVNVTAGTYSLGVYAQSGGWNINWIRITKVAS
notes: as for B1
- Km [3]: 120 ± 3 µM
- kcat [3]: 1.005 ± 0.0533 s⁻¹
- kcat/Km [3]: 8150 M⁻¹ s⁻¹

B4: CpChiAC (Chitinophaga pinensis DSM 2588) (protein)
chain: KVVVGYWQNWNLASAPYIRLRDVDSRYNVIEVAFGTTSSDLSTVNFTPEGTTVADFKADIATLQAQGRKVLLSLGGETGTLVINTEANKQAFISSMKNLLDSYNFDGFDLDIEGGTSLQLNNGDNNFMAPTTPKVVNLIAAAKEIISYRKAQGKNCLLTMAPETYYVQTAYGATYSPLVGAYLPIIYGLRNELSWIQPQLYNTGSVMGLDNKVYNSTTADFIVSMTEMLLQGFPVSGTSQTFPALREDQVAFGLPAAPGAAGSGYTAPAEVKKALNYLTKGQSYGGTYVIRKAAGYPGLRGIMTWSVNWDKVNNSEFAANYYPYFFGT
notes: as for B1
- Km [4]: 220 ± 3 µM
- kcat [4]: 2.6587 ± 0.035 s⁻¹
- kcat/Km [4]: 11800 M⁻¹ s⁻¹
